In patent publication US7700727B2, “Compositions and kits for detecting pathogen infection” (Biokit, S.A., priority 2003, dated 2010):

Columns and labels:
chicken lysozyme [1] = target: T1, chicken lysozyme (Gallus gallus, UniProt P00698); experiment: Far Western blot lysozyme-protein interaction assay; format: binding; parameters: Purified chicken egg white lysozyme; purchased Sigma-Aldrich (Madrid, Spain); host or cells: chicken egg white; conditions: 1, 5 and 10 μg immobilized lysozyme per lane; washes with 0.05% Tween 20
Method: (§1) In order to test this hypothesis, a Far-Western blot lysozyme-protein interaction assay was performed. The assay is summarized in FIG. 5 and comprises generally the following three steps: (1) immobilization of purified lysozyme onto a membrane; (2) probing of the membrane with a ligand likely to bind directly to the lysozyme; and (3) immunodetection of the bound lysozyme-ligand. A detailed experimental procedure is presented below.
(§2) Purified chicken egg white lysozyme and human breast milk lysozyme were purchased from Sigma-Aldrich (Madrid, Spain). Two series of aliquot fractions containing 1 μg, 5 μg, and 10 μg of purified lysozyme and a protein molecular weight marker (SeeBlue Plus II™, Invitrogen SA, Barcelona, Spain) were separated electrophoretically through a 4-12% SDS-PAGE gel using the conditions recommended by the supplier (Invitrogen). […] The presence of lysozyme immobilized onto the PVDF membrane was assessed by staining for 1 minute with Ponceau S stain (Sigma-Aldrich, Madrid, Spain), and then destained by vigorous washing for 5 minutes with desionized water. The membrane was divided in two, each portion containing a protein ladder and three quantities of chicken or human lysozyme (1 μg, 5 μg and 10 μg per lane). […]

lysozyme [2] = target: T2, lysozyme (Homo sapiens, UniProt P61626); experiment: Lysozyme inhibition assay (EnzCheck, fluorescein-labeled Micrococcus lysodeikticus); format: biochemical
T2 sequence (P61626 19-148): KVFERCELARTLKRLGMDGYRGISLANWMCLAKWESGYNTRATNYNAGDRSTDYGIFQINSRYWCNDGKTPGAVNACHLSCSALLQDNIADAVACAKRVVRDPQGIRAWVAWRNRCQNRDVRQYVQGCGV
Method: (§3) To test this hypothesis, the antibacterial activity of both human and chicken lysozyme, in the presence or absence of GST-Tp17, was assayed using an EnzCheck® lysozyme assay kit (Molecular Probes, Eugene, Oreg.). The assay comprises the use of Fluorescein-labeled Micrococcus lysodeikticus bacterial cells as a fluorescent substrate of lysozyme. In this Gram positive bacterium, the peptidoglycan layer is directly accessible to lysozyme, and has been Fluorescein-labeled such that fluorescence is naturally quenched. Upon lysozyme hydrolysis, quenching is relieved and fluorescein is released in a quantity that is proportional to lysozyme activity. The following experimental protocol was used.
(§4) A typical 100 μl reaction consisted of 25 μl of lysozyme solution (10 units for chicken lysozyme or 50 units for human lysozyme, dissolved in deionized water), 25 μl of the test protein solution and 50 μl of a suspension of fluorescein-labeled Micrococcus lysodeikticus (50 μg/ml). The reaction was incubated for 45 minutes at 37° C. and the fluorescence was measured (λexc.=485 nm; λemi.=520 nm) using a fluorescence multi-well plate reader model FLx800 (Bio TEK instruments, Winoosky, Vt.) equipped with KC junior data acquisition software (Bio TEK Instruments, Winoosky, Vt.). Each experimental point was expressed as the mean and standard deviation corresponding to the reading of three independent wells. Wells containing 50 μl of deoinized water and 50 μl of Fluorescein-labeled Micrococcus lysodeikticus suspension were used as a blank. Two fold serial dilutions of test protein were used to vary the concentration of the test protein from 83.5 to 1.3 μg/well.

chicken lysozyme [3] = target: T1, chicken lysozyme; experiment: as above; format: biochemical
Method: as §3, §4

lysozyme [4] = target: T2, lysozyme; experiment: Far Western blot lysozyme-protein interaction assay; format: binding; conditions: 1, 5 and 10 μg immobilized lysozyme per lane; washes with 0.05% Tween 20
Method: as §1, §2

[5] = system: Micrococcus lysodeikticus; conditions: pH 6.24, 25° C., Micrococcus lysodeikticus suspension; cited from earlier work
lysozyme [6] = target: T2, lysozyme; experiment: Lysozyme binding assay on spotted β-APP fragments with POD-labeled human lysozyme; conditions: 10 μg protein spotted; POD-huLYS diluted 1/1000
Method: To test whether the β-APP protein binds huLYS, we performed lysozyme binding assays using purified, recombinant forms of β-APP. Both sAPPα (product number: S9564) and sAPPα (302-612) (product number: S8065) were purchased from Sigma-Aldrich (Tres cantos, Madrid, Spain). 10 μg of each protein was spotted onto a Nytran membrane (Scleicher & Schuiell, Dassel, Germany). Non-specific adsorption sites were blocked by incubation for one hour in TBST-milk. After three washes with TBST, the membrane was incubated for one hour with horse radish peroxidase (POD)-labeled human lysozyme diluted 1/1000 in TBST-milk. Next, the membrane was washed three times, for 5 minutes each wash, with TBST. Staining was performed by adding 5 ml of POD chromogenic substrate (TMB, product number: T0565, Sigma). […] Moreover, the β-APP/huLYS protein complex likely serves as a diagnostic marker of Alzheimer's disease.

[7] = system: anti-T. pallidum antibodies in human sera; experiment: Syphilis ELISA (Bioelisa, second and third generation format) with added lysozyme
Excerpt: Syphilis screening is routinely performed using enzyme-linked immunosorbent assays (ELISA) kits. These kits detect the binding of anti-syphilis antibodies to T. pallidum antigens immobilized in the wells of a microtiter plate. Detection of the binding of anti-syphilis antibodies to the plate is normally carried out by means of either an enzyme-labeled antiserum directed against human Fc antibody chains (second generation kit) or an enzyme-labeled T. pallidum antigen (third generation kit).
All the reagents used in this study are provided by the commercial Bioelisa Syphilis 3.0 detection kit (Biokit S.A., Lliça d'Amunt, Spain). The protocol used is that recommended in the package insert of the kit. Briefly, serum or plasma samples are added to the wells of a microtiter plate. If antibodies specific for T. pallidum are present in the sample, they form stable complexes with the antigens on the well. After washing to remove the unbound material, a rabbit conjugate anti-human IgG and anti-human IgM labelled with horseradish peroxidase is added and, if the antigen/antibody complex is present, the conjugate binds to the complex. After a second wash, an enzyme substrate solution containing a chromogen is added. This solution develops a blue color if the sample is positive. The blue color changes to yellow after blocking the reaction with sulphuric acid. […]

GST-Tp17 or Tp17-HIS = experiment: Antibacterial activity of lysozymes with or without Tp17 (EnzCheck); format: biochemical, Treponema pallidum; conditions: 1 unit human lysozyme or 230 units rLysozyme; 10 μg GST-Tp17 or Tp17-HIS
Excerpt: In that context, we compared the antibacterial activity of human lysozyme (Ventria Bioscience, Sacramento, Calif., USA) and rLysozyme™ using the EnzCheck Lysozyme assay (E-22013; Molecular Probes, Eugene, Oreg.). We first determined that under the manufacturer's prescribed assay conditions, 1 unit of human lysozyme produced the same intensity of fluorescence as 230 units of rLysozyme™. Next, we measured the fluorescence intensity of either 1 unit of human lysozyme or 230 units of rLysozyme™, in the presence or absence of 10 μg of either GST-Tp17 or Tp17-HIS. […] As a consequence, rLysozyme™ represents a novel and promising antimicrobial drug that could eventually substitute for chicken lysozyme in various therapeutic preparations intended for human and animal use. Additionally, it can be used as an antiseptic and/or as a food preservative.

[8] = test protein 83.5 to 1.3 μg/well

T1 sequence (P00698 19-147): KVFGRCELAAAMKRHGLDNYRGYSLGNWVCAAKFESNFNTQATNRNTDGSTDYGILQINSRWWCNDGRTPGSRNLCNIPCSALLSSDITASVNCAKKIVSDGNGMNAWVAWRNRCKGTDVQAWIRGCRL
Chain of GST-Tp17 or Tp17-HIS (P29722 23-156 limits assumed): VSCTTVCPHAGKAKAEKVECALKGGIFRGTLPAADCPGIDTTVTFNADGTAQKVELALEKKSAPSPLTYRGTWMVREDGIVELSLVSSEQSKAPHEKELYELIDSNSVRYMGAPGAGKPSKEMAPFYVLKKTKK

GST-Tp17: recombinant fusion of glutathione S-transferase and Treponema pallidum 17 kDa antigen Tp17 (SEQ ID NO:29)
binding to chicken lysozyme (chicken lysozyme [1]): detected binding
inhibition of acetyl muramidase activity of human lysozyme (lysozyme [2]; as little as 1.3 μg/well, 50 units human lysozyme): > 85%
inhibition of acetyl muramidase activity of chicken lysozyme (chicken lysozyme [3]; as little as 1.3 μg/well, 10 units chicken lysozyme): > 85%
binding to human lysozyme (lysozyme [4]): detected binding

recombinant human transgenic rice lysozyme: purified recombinant human lysozyme from transgenic rice (159-53LZ-90P; Ventria Bioscience)
specific activity [5]: 187,000 units/mg protein

sAPPα: longer recombinant fragment of β-APP derived from the APP695 isoform (Sigma S9564)
binding of POD-labeled human lysozyme (huLYS) (lysozyme [6]): bound

B1: GST-Tp47: control protein, GST fusion of T. pallidum Tp47 antigen (protein)
chain: CGSSHHETHYGYATLSYADYWAGELGQSRDVLLAGNAEADRAGDLDAGMFDAVSRATHGHGAFRQQFQYAVEVLGEKVLSKQETEDSRGRKKWEYETDPSVTKMVRASASFQDLGEDGEIKFEAVEGAVALADRASSFMVDSEEYKITNVKVHGMKFVPVAVPHELKGIAKEKFHFVEDSRVTENTNGLKTMLTEDSFSARKVSSMESPHDLVVDTVGTGYHSRFGSDAEASVMLKRADGSELSHREFIDYVMNFNTVRYDYYGDDASYTNLMASYGTKHSADSWWKTGRVPRISCGINYGFDRFKGSGPGYYRLTLIANGYRDVVADVRFLPKYEGNIDIGLKGKVLTIGGADAETLMDAAVDVFADGQPKLVSDQAVSLGQNVLSADFTPGTEYTVEVRFKEFGSVRAKVVAQ
modifications: left off: a dimerising Fc or GST
notes: control protein, GST fusion of T. pallidum Tp47 antigen
binding to chicken lysozyme (chicken lysozyme [1]): No signal was detected
inhibitory effect on human lysozyme acetyl muramidase activity (in words) (lysozyme [2]; [8]): did not exert any inhibitory effect
inhibitory effect on chicken lysozyme acetyl muramidase activity (in words) (chicken lysozyme [3]; [8]): did not exert any inhibitory effect
binding to human lysozyme (lysozyme [4]): No signal was detected

B2: human lysozyme: human lysozyme (NP_000230); breast milk-derived in Example 8, recombinant (Ventria) in Examples 10 and 16 (protein, listed as Homo sapiens)
chain: T2 sequence (P61626 19-148)
increase in signal intensity ([7]; second generation format, lysozyme added to the plate at 2.86 μg/ml, syphilis-positive human sera): about 20%
increase in signal intensity ([7]; third generation format, lysozyme in sample dilution buffer (10.8 μg/ml) and conjugate dilution buffer (1.08 μg/ml), 3 out of 4 sera): about 200%
susceptibility of antibacterial activity to inhibition by GST-Tp17 or Tp17-HIS (GST-Tp17 or Tp17-HIS): strongly inhibited
